Test results taken from US20240075142A1 (LENTIGEN TECHNOLOGY, published 2024).

T1: CD19 Fc recombinant protein (UniProt P15391 20-291)
T1 construct: Bought staining reagent (R&D System), detected with anti-Fc-AF647; also called CD19-Fc peptide; not shown: Fc part of the bought reagent
T1 sequence (looked up): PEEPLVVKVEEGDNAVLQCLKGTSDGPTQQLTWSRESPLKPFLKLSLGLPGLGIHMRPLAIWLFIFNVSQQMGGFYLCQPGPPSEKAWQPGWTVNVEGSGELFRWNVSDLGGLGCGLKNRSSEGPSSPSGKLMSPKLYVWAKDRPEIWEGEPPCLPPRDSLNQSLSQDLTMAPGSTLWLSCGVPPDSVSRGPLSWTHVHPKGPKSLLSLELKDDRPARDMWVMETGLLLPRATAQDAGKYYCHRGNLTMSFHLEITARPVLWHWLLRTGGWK


Biological target: T1, CD19 Fc recombinant protein
Experiment: flow cytometry of CAR-transduced primary T cells stained with CD19 Fc, then anti-Fc AF647
Procedure: The surface expression of anti-CD20/CD19 CARs incorporating single chain fragment variable (ScFv) sequences reactive with fully human CD20 and CD19 antigens, is shown in Example 1 infra, FIG. 1B. The expression level for each ScFv-containing CAR was determined by flow cytometric analysis of LV-transduced T cells from healthy donors using CD19 Fc recombinant protein, followed by anti Fc AF647 (APC).
Half million CAR T cells were washed in cold AutoMACS buffer supplemented with 0.5% bovine serum albumin (Miltenyi Biotec, Bergisch Gladbach, Germany) and stained with CD19-Fc peptide (R&D System, Minneapolis, MN), followed by anti Fc-AF647 conjugate (Jackson ImmunoResearch, West Grove, PA). The 7-Aminoactinomycin D staining (7-AAD, BD Biosciences, San Jose, CA) was added to exclude dead cells. CD4 antibody labeled with Vioblue fluorochrome was used to separate CD4 and CD8 population. Non-transduced cells (UTD) were used as a negative control. Cells were washed twice, resuspended in 200 μl running buffer, and acquired by flow cytometry. Flow cytometric analysis was performed on a MACSQuant® 10 Analyzer (Miltenyi Biotec), and data plots were generated using FlowJo software (Ashland, OR).

Binder	binding result
CAR D0256 (CD20_CD19 CD8 CD28 BBz) (other, Tandem CAR on transduced human primary T cells: CD20 scFv, G4S linker, CD19 scFv, CD8 hinge/TM, CD28_4-1BB, CD3zeta; no residue limits are stated) EIVLTQSPATLSLSPGERATLSCRASQSVSSYLAWYQQKPGQAPRLLIYDASNRATGIPARFSGSGSGTDFTLTISSLEPEDFAVYYCQQRSNWPITFGQGTRLEIKGGGGSGGGGSGGGGSEVQLVESGGGLVQPGRSLRLSCAASGFTFNDYAMHWVRQAPGKGLEWVSTISWNSGSIGYADSVKGRFTISRDNAKKSLYLQMNSLRAEDTALYYCAKDIQYGNYYYGMDVWGQGTTVTVSSGGGGSGGGGSGGGGSGGGGSGGGGSEVQLVQSGAEVKKPGASVKVSCKASGYTFTSYYMHWVRQAPGQGLEWMGLINPSGGSTSYAQKFQGRVTMTRDTSTSTVYMELSSLRSEDTAVYYCARSDRGITATDAFDIWGQGTMVTVSSGGGGSGGGGSGGGGSQSVLTQPPSVSVAPGRMAKITCGGSDIGNKNVHWYQQKPGQAPVLVVYDDYDRPSGIPERFSGSNSGDAATLTISTVEVGDEADYFCQVWDGSGDPYWMFGGGTQLTVLGAAATTTPAPRPPTPAPTIASQPLSLRPEACRPAAGGAVHTRGLDFACDIYIWAPLAGTCGVLLLSLVITLYCRSKRSRLLHSDYMNMTPRRPGPTRKHYQPYAPPRDFAAYRSKRGRKKLLYIFKQPFMRPVQTTQEEDGCSCRFPEEEEGGCELRVKFSRSADAPAYQQGQNQLYNELNLGRREEYDVLDKRRGRDPEMGGKPRRKNPQEGLYNELQKDKMAEAYSEIGMKGERRRGKGHDGLYQGLSTATKDTYDALHMQALPPR	binds
CAR D0255 (CD20_CD19 CD28 CD28 BBz) (other, Tandem CAR on transduced human primary T cells: CD20 scFv, G4S linker, CD19 scFv, CD28 hinge/TM, CD28_4-1BB, CD3zeta; no residue limits are stated; also called CAR DO255) EIVLTQSPATLSLSPGERATLSCRASQSVSSYLAWYQQKPGQAPRLLIYDASNRATGIPARFSGSGSGTDFTLTISSLEPEDFAVYYCQQRSNWPITFGQGTRLEIKGGGGSGGGGSGGGGSEVQLVESGGGLVQPGRSLRLSCAASGFTFNDYAMHWVRQAPGKGLEWVSTISWNSGSIGYADSVKGRFTISRDNAKKSLYLQMNSLRAEDTALYYCAKDIQYGNYYYGMDVWGQGTTVTVSSGGGGSGGGGSGGGGSGGGGSGGGGSEVQLVQSGAEVKKPGASVKVSCKASGYTFTSYYMHWVRQAPGQGLEWMGLINPSGGSTSYAQKFQGRVTMTRDTSTSTVYMELSSLRSEDTAVYYCARSDRGITATDAFDIWGQGTMVTVSSGGGGSGGGGSGGGGSQSVLTQPPSVSVAPGRMAKITCGGSDIGNKNVHWYQQKPGQAPVLVVYDDYDRPSGIPERFSGSNSGDAATLTISTVEVGDEADYFCQVWDGSGDPYWMFGGGTQLTVLGAAAIEVMYPPPYLDNEKSNGTIIHVKGKHLCPSPLFPGPSKPFWVLVVVGGVLACYSLLVTVAFIIFWVRSKRSRLLHSDYMNMTPRRPGPTRKHYQPYAPPRDFAAYRSKRGRKKLLYIFKQPFMRPVQTTQEEDGCSCRFPEEEEGGCELRVKFSRSADAPAYQQGQNQLYNELNLGRREEYDVLDKRRGRDPEMGGKPRRKNPQEGLYNELQKDKMAEAYSEIGMKGERRRGKGHDGLYQGLSTATKDTYDALHMQALPPR	binds
